# Laboratory results taken from patent publication US20200291098A1 (PANASONIC INTELLECTUAL PROPERTY MANAGEMENT, published 2020).
# B1: VHH antibody consisting of the amino acid sequence represented by SEQ ID NO: 8 (VHH)
# VHH: EVQLVESGGGLVQPGGSLSLSCAASGFTFSNYYMGWFRQAPGKERQSLATVNSGGTGEAYADSIRGRFTISRDNAKNTVTLQMSSLQPEDTAVYYCARVDGRVLSTIVVSYDYWGQGTQVTVSS
# Legend:
# [1] = biological target: recombinant nucleoprotein (NP) protein derived from influenza virus H1N1 to which a Flag tag was fus (influenza virus H1N1)
# [2] = biological target: intranuclear protein derived from type-A influenza virus subtype H1N1 (A/Hokkaido/6-5/2014) (type-A influenza virus H1N1 …)
# Chain of recombinant nucleoprotein (NP) protein derived from influenza virus H1N1 to which a Flag tag was fus (influenza virus H1N1) (P03466 whole entry): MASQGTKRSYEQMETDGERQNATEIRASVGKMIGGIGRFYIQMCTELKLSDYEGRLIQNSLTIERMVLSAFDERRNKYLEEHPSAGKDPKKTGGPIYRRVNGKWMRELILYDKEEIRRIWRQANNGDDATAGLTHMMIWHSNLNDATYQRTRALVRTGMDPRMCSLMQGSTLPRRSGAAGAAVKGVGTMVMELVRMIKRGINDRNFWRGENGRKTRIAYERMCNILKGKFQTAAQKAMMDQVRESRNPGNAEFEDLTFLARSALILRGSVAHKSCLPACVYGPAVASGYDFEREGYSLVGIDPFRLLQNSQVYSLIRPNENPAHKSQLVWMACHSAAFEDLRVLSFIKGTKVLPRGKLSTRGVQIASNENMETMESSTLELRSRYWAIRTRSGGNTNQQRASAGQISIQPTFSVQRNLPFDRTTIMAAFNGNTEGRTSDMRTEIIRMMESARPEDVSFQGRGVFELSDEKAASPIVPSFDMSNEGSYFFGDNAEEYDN
binder,measurement,setting,value
B1,Kd,[1],0.201 nM
same,EC50 (read off the curve),[2],~8 ng/mL
